Measured values published in publication PMC5538626, “Structural and functional analysis of the GABARAP interaction motif (GIM)” (EMBO Reports, 2017).

Target: LC3B (for ITC and NMR) (human), Q9GZQ8
Assay: ITC; peptide 0.4 mM titrated into 0.020 mM LC3/GABARAP protein in 26 steps, 25°C; 50 mM Na2HPO4, 100 mM NaCl, pH 7.0; one-site model

| Ka | Kd | dH | Binder |
| --- | --- | --- | --- |
| 10000 M⁻¹ | > 100 µM | -0.8 kcal/mol | PQQEDEAVNVQYPD (modifications not checked) [PLEKHM1‐LIR W635A peptide (ITC), Q9Y4G2 629-642] |
| 10000 M⁻¹ | > 100 µM | -1.7 kcal/mol | PQQEDEWGNVQYPD (modifications not checked) [PLEKHM1‐LIR V636G peptide (ITC), Q9Y4G2 629-642] |
